Biological target: the molecule itself
Assay: SEC; Superdex 200; 5 mg/ml protein; 20 mM Tris-HCl pH 7.5, 300 mM NaCl, 5% glycerol; elution volume compared with standard proteins

B1: MRB1590(10–668) (domain or fragment, T. brucei, UniProt Q57ZF2 10-668, looked up)
chain: YRGGRGGGRGHSHWHNNAPMERGGHMPSNNEGAAISSGSTGFSPLMDFFHSVEGRNYGELRSLTNETYQISENVRCTFLSIQSDPFAPGSQVRLVCPCTFSLEKVLQTTDLAAANPCRRVAAEDFILRSFHAGYRNGIPRRTSGAVQVLRPSQHVLERSTVGLVKAHQQKSGMQAEIEIFARVKLPGHGRRIDGHGAIDIFYNELVPLLEQCVVGLNEEDLHQHVICVHDQEVLRSNLLGAGYVAFVANGAILPRDAGNSDKPLRDNAVPFQSPKSLECSFTLPHSGKTITGMGLPPGLTLIAGGGFHGKSTLLRALEVGIYNHVPDDGRTYVVVDPTAVKIRAEDRRSVHGVDISPFINNLPFGKTTNFFVTADASGSTSQAANIMEALELGSQLLLLDEDTCATNLMYRDALMQMLVPRAQEPITPFVERVADLSQNHGVSSIMVIGGSGQYFPQARVVLVMNAYQISDCTKEAKEIASNSSLPALNPPGDTASVFIPDVNRCFDPDGSFTTVRRRRGREGTKVSGIGTESIRFSEETIDLSMVEQIVEEGQVNAIAQCLALLYDGEPRIVPEMTTKGGALTQLPSPGGVCEIQRGKFNSNFSSMIAGCCSHQHDKRLELRTPSCYLPRGFTSATRHIEIGAALNRLRTLRTVTAKR
notes: MRB1590, Trypanosoma brucei, residues 10-668 (N-terminal truncation of the full length protein); also called MRB1590–AMP–PNP complex; MRB1590-ADP, crystal form 2 (with poly-U); source: E. coli C41(DE3), purified (nickel-nitrilotriacetic acid column)
  stoichiometry N: 2
